For test [1], the target named is gp120 JR-CSF (recombinant) (HIV-1, UniProt P20871). In words: ELISA.
In test [2] the target is HIV-1 NL4-3 Env on infected cells (HIV-1 group M subtype B, NL4-3 (pNL4-3 …, strain)).

B1: HC antibody RI10953 (IgG1) (antibody, V domains shown)
VH: EMRLEESGGALVKPGGSLRLSCVASGFKLSEWSLMWVRQAPGKGLQWVSSISLNQDYISYAGSVRGRFDVFRDRTQTSLLLNMNKLKTEDTGVYFCARVHAWRYFDWVNRRSPVEKVLSIDLWGRGTLVIVSS
VL: SGATQPPSVSVSKGETARITCSGVELSSQYVSWYRQRPGQSPVLVMFHNNSRASRIPERFSASDSGDTATLTIAGAQDVDEAEYYCQTWDSKNYVTFGGGTKLTVL
For B1, in test [1], the binding result is given as “binds”.

B2: c2842 (antibody, V domains shown)
VH: QVQLVQSGAEMKKPGSSVKVSCKASGGSFRSFTVNWVRQAPGQGLEWVGRIIAIFGSVDYAQKFQGRVTISADESTSTFYMDINSLKSEDTAVYYCVRDGLVGGRDFWGQGTQVTVSS
VL: EIVLTQSPGTLSLSPGERATLFCRASQSIKKNYVAWYQQNPGQAPRLLIYGASSRATGTPDRFRGSGSGTDFTLTISRLEPEDFAVYYCQQYGSAQYSFGQGTKLEIK
Regarding B2, the binding result in test [2] is listed as “binds”.

B3: c10814 (antibody, V domains shown)
V domain 1: EVRLDQSGTEMRKPGTRVRLSCKVSGHTTSDFFVHWVQQAPQRGPQWMGLINVEDENVIYADIFQGRISIVADTSKKTVFLDLTDLTFEETALYFCATHTLQKDTGDYVAAFDSWGQGTLLYVSS
V domain 2: QSVLTQPPSVSAVPGQKVIISCSGRTSNIGTNFVSWYQQFPGAAPKLLIYDNFNRPSGISDRFSASKSDTSATLAITALQAGDEAEYYCGAWDSGLNPAVFVFGSGTRVFVL
Regarding B3, in test [2], the binding result is given as “binds”.

B4: c7809 (antibody, V domains shown)
VH: QEQRIESVRAAVEPGASLIISCPTSGFDFDRYTMHWVRQAPGKGLEWVAVTSSQGEKKYYSEAVKGRFLITRNNFKRTLYLEMSSLKPEDAGVYYCARSQGYCGTYACYGYYYYMDVWVKGPTVIVSS
VL: QSVLTQPPSVSAAPGEKVAISCSGNTTNIEKNYVAWYQHVPETAPKLLIFENHKRPFGIPDRFSGSKSATSATLGISDLQTADEADYYCQTWDTKLHIWVFGGGTKLTVL
B4: in test [2], the binding result was “binds”.

B5: c8517 (antibody, V domains shown)
VH: QVTLKESGPTLLRPADTLTLTCNFSGFSLTTDGVALGWMRQSPGKAPEWLAFLFYDDDKQYNPHLKSRLIISKASSTNQLVLAMTNMGPGDAGTYFCARLNVLVHDVPPRNYGLDVWGRGITITVSS
VL: DIVLTQSPVSLSVTPGQSASMSCKSSETLLHEDGKSYLYWYLQKPGQSPQLLIYEASKRFSGVSDRFTASGTGTHFTLQIDRVEVDDVGVYYCMENLKALTFGGGTRMEIK
In the case of B5, the binding result in test [2] is recorded as “binds”.

B6: c8549 (antibody, V domains shown)
VH: QVTLKESGPTLLRPADTLTLTCNFSGFSLTTDGVALGWMRQSPGKAPEWLAFLFYDDDKQYNPHLKSRLIISKASSTNQLVLAMTNMGPADAGTYFCARLNVLVHDVPPRNYGLDVWGRGITITVSS
VL: DIVLTQSPVSLSVTPGQSASMSCKSSETLLHEDGKSYLYWYLQKPGQSPQLLIYEASKRFSGVSDRFTASGTGTHFTLQIDRVEVDDVGVYYCMENLKALTFGGGTRMEIK
As to B6, the binding result in test [2] is recorded as “binds”.

B7: HC antibody RI808 (IgG1) (antibody, V domains shown)
VH: QIQLRESGPGLVKPSETLTLTCSVSGGSIFPYFYSWIRQPAGKGLEWIGRLFSNSGSVRSNPSMHTRVGFSMDRSRNQVSLTLTSVTAEDTAVYYCVRDIMREYDDINGAGGYYRGVDVWGRGTMVTVSS
VL: NFMLTQPPSVSESPGKTVTISCTRNSGSIASNSVYWYRQRPGSPPTTLIHDNNRRPTGVPDRFSASIDTSSNSASLTISSLKTEDEADYYCQSYDNGNHVIFGGGTNLLVL
As for B7, the binding result in test [1] was “binds”.

B8: c1821 (antibody, V domains shown)
VH: QVQLIQSGAEVKKPGASVKVSCKVSGYTFPEVSMHWVREAPGRGLEWVGGYDPQSAATVYAQRFQGRVTMTEDTSVDTAYMELTSLTSEDTALYFCARSIMIRYGGVIRSFAFDVWGQGTMVIVSS
VL: SSELTQDPAVSVALGQTVTITCQGDSLRQYYATWYQRKPGQAPVLVLSGKNKRFSGIPDRFSGSTSGNSASLTIIGTQAEDEADYYCSSRGSDAYPHYVFGTGTKVTVL
For the molecule B8, in test [2], the binding result is listed as “binds”.

B9: c13173 (antibody, V domains shown)
VH: EVYLMESGGGLVQPGGSLRLSCEVSGLNRTDYWMHWIRQPPGKGLEWVSRIYSHGGGTTYADSVRGRFSLSRDSAKSTLFLEMNSLRVEDTAIYYCLFSEGDFWGPGTLVTVSS
VL: QSALTQPASLSGSPGQSITISCTGNSSDIGKSDYVSWYRQDPGKAPKLLIYDVSSRLSGISDRFSGSKSDNTASLTISGLQAEDEADYYCSSYTNWDTKVFGTGTRVTVL
On to B9, for which the binding result in test [2] is listed as “binds”.

B10: c12286 (antibody, V domains shown)
VH: EVHLVESGGGWIHPGMALRLSCAASGFTFEDFAMHWIRQVPGKGLEWVSSITWNGRDTAYADSVKGRFTISRDNAKNSLYLQMNSLRTEDTALYYCVKDSSVSSHYFDSWGQGIMAFVSS
VL: AIQMTQSPSTLSASVGDTVTITCRASQSVSAWLAWYQQKPGKAPKLLIYKASSLQTGVPSRFSGSGSGTEFTLTINSLQPDDFATYSCQQYNFYPWTFGPGTKVEIK
Regarding B10, the binding result in test [2] is “binds”.

B11: c2718 (antibody, V domains shown)
VH: HVQLQQWGAGLLKPSETLSLTCAVYGESFSVYDWAWIRQSPGKGLEWIGEINHDGGTNYNPSLKSRVTISIDIHLRRFSLSLISVTAADTAIYYCARHIGQLEAFDYWGQGALVTVSS
VL: QSALTQPASVSGSPGQSITISCTGITSDVGDHSYVSWYQQPPGKAPQLIIYDVVNWPPGVSHRFSGSKSGNTASLTITGLRAEDEADYYCASYRRGSSVVFGGGTKVTVL
B11: the binding result in test [2] is reported as “binds”.

B12: c3214 (antibody, V domains shown)
VH: QVQLVQSGAEVKKPGSSVKVSCKASGDNFSGYGINWVRQAPGQGLEWMGRIFPMLPVPSYAQKFQGRVTITADESTNSAYLELTSLRSEDSAVYYCARGTGEGDYFDYWGQGTQVTVSS
VL: DIQMTQSPSSVSASVGDRVTITCRASQGISRYVAWYQQKPGKAPKLLIYAASSLETGVPSRFSGSGSGTDFTLTISSLEPEDFATYYCQQANSFPLTFGGGTKVEIK
Consider B12, for which the binding result in test [2] is “binds”.

B13: c8567 (antibody, V domains shown)
VH: QQQRVETVKHAVDPGSFLIISCPTSGFTFETYAMHWVRQAPGKGLEWVAATSALGEKKYYSNAVKGRFLITRNNSKRTLYLEMSGLKAEDTAVYYCARSQGYCSDFSCYGYYYYMDVWVKGPTVIVSS
VL: QSVLTQPPSVSAAPGEKVTISCSGNTTNIGNNFVAWYQHLPQNAPKLLIYEDHKRPFGIPDRFSGSKSGTSATLGISGLQTGDEADYYCQTWDAKLLIWIFGGGTKVTVL
In the case of B13, the binding result in test [2] is “binds”.

B14: c8582 (antibody, V domains shown)
VH: QVHLVQSGAEVKKPGSSVKVSCKASGGSFSDYGISWVRQAPGQGLEWMGGIIPGFETTKFAQGLQGRLTMTADESSSTAYMVLNRLRPQDTGVYYCATTGQQNDYYSSGTSYKLNFYFGMDVWGQGTTVTVSS
VL: QSVLTQPPSSSGTPGQRVTITCSGGSSNIETNSVHWYQQLPGAAPKTVISATHQRPSGVPDRFSASKSGASASLAISGLQSEDEADYYCAVWDDSLNTWVFGGGTKLTVL
Consider B14, for which, in test [2], the binding result was “binds”.

B15: c1897 (antibody, V domains shown)
VH: EVQLVQSGAEVKKPGSSVKVSCKGSGGTLNMFALSWVRQAPGQGLEWVGGIIPSFGTTNYAQKFEGRVTITADDSADESTATVHMELSSLRRDDTAVYYCARESSGRADDSLIGYFDRQGEYYFDFWGQGTLVTVSS
VL: DIQMTQSPSTLSASIGDRVTITCRASQSISTLLAWYQQKPGKAPKLLISKASSLQSGVSARFSGSGSGTEFTLTINSLQPDDFATYSCQQYNSHPVTFGQGTKLEIK
Regarding B15, the binding result in test [2] is recorded as “binds”.

B16: c8595 (antibody, V domains shown)
VH: QVKLQESGPGLVKPSETLSLTCVVSGVSISQSDYFWNWLRQTPGKGLEWLGFISYSGDTFFNPSLESRLGMSVDTSSNHISLSLKSMTAADAAVYYCARTFCDDVKCYPLFDSWGHGKLVAVSS
VL: DIVMTQSPDSLPLSPGERASINCQSSQSVLYSSDNRNYLAWYQLKPGQPPKLLIYWASVRASGVPDRFSGSGSGTDFTLSISSLQAEDVAVYYCQQYYITPYSFGQGTKVEIR
Regarding B16, in test [2], the binding result is given as “binds”.

B17: c32045 (antibody, V domains shown)
VH: AVQLLESGGGLVKPGGSLRLSCAASGFTFGSYAMHWVRQAPGKGLEWVSSINISSTTYMYYSDSLKGRFTISRDNAKKTLYLQMASLRPEDTAVYYCVREATYCGSQCYSRYFDFWGSGTLVAVSS
VL: DIQMTQSPPSVSAGVGDRVTITCRASQTISGFLSWYQQKPGKAPKLLIYAASTLHSGVPSRFSGSGSGTDFTLTISSLQPEDFATYYCQQSYSAPRTFGQGTKLEIK
B17: the binding result in test [2] is reported as “binds”.

B18: c8639 (antibody, V domains shown)
VH: LLQLHESGPGLVKPSEALSLTCTVSGASATNGLYWAWIRQPPGKGLEWVASLKKWRGYYNPSLGSRVTISHAPDNQISLRLESVTAADAAVYFCVGFFSSSAFDYWGRGTLVTVSS
VL: AYVLTQPPSVSVAPGKTAKISCEGNNIGQKAVHWYQQKSGQAPVLFISDGTTRTSGIPARFSGSRSGNTATLTISWVEGGDEADYYCQVMSGDTALFGGGTKLTVL
Consider B18, for which, in test [2], the binding result is “binds”.

B19: c8553 (antibody, V domains shown)
VH: QVQLVQSGAEMKMPGSSVKVSCKTSGGTFGSDSLNWVRQAPGQGLEWMGAIIPVFRTATYAQKFQGRVTITADTSTSTVSMDFYNLKSEDTAVYFCARFLLTSGDDIRDFFDLWGPGTMVTVSS
VL: PSELTQDPAVSVPLGQTVKISCRGDNLGTYYTSWYQQKAGQAPLAVIYGDNKRPSEIPERFSGSSSGNTASLTITGARAEDEADYYCNSRDKSGSHVVFGGGTKLTVL
As for B19, the binding result in test [2] was “binds”.

(Values after paper PMC8196545 (Cell reports, 2021).)
